doi:10.1101/859132 (bioRxiv, 2019)

Legend:
Test in all cases: pull-down
[1] = target: T1, Maf1-id D248A/D250A (S. cerevisiae, UniProt P41910 1-395, Δ64-194 | D248A | D250A)
T1 sequence (looked up): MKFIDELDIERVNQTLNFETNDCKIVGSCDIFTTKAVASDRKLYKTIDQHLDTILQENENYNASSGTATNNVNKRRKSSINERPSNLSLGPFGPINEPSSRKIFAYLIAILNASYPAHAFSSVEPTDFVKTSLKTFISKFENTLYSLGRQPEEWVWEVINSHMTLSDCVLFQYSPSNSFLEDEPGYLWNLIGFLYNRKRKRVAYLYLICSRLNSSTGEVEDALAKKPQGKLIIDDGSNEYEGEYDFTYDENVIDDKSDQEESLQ

[2] = target: T2, Maf1-id (Maf1 Δ64-194) (S. cerevisiae, UniProt P41910 1-395, Δ64-194)
T2 sequence (looked up): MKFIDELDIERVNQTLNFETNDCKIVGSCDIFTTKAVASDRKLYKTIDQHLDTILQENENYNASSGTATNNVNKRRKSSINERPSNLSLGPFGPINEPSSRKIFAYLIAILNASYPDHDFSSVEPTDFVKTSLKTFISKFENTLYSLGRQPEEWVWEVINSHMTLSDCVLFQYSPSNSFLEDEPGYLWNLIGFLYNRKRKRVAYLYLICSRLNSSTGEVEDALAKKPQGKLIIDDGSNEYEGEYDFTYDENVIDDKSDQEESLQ

[3] = target: T3, Maf1-id L318S/W319S (S. cerevisiae, UniProt P41910 1-395, Δ64-194 | L318S | W319S)
T3 sequence (looked up): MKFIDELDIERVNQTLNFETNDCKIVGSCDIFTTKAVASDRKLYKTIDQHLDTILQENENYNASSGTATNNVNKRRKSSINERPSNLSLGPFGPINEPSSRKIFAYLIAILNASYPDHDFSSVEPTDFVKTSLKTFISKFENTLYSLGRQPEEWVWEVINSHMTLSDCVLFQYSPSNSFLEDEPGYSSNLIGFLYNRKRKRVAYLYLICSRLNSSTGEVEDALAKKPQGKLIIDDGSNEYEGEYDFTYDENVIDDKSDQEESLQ

[4] = target: T4, Maf1-id T33E/T34E (S. cerevisiae, UniProt P41910 1-395, Δ64-194 | T33E | T34E)
T4 sequence (looked up): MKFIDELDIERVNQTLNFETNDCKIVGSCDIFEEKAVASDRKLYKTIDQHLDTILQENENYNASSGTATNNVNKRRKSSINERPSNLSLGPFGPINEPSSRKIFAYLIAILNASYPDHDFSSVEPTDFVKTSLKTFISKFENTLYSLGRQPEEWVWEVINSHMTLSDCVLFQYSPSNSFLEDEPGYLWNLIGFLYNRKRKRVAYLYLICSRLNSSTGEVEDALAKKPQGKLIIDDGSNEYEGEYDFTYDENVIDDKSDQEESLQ

Measured: binding result

B1: C34 1-156 (the two N-terminal C34 WH domains), His-tagged (domain or fragment, S. cerevisiae, UniProt P32910 1-156, looked up)
chain: MSGMIENGLQLSDNAKTLHSQMMSKGIGALFTQQELQKQMGIGSLTDLMSIVQELLDKNLIKLVKQNDELKFQGVLESEAQKKATMSAEEALVYSYIEASGREGIWSKTIKARTNLHQHVVLKCLKSLESQRYVKSVKSVKFPTRKIYMLYSLQPS
binds: all assays above
